Experimental data: article PMC6555819, “Comprehensive study of nuclear receptor DNA binding provides a revised framework for understanding receptor specificity”
Numbering of substitutions follows the chain as printed.

B1: NRC3_wobSeed119_DR4_G27A_o1 (dsDNA)
DNA 1: GCGGAACGAGGGCATTCGAGTTGATAACATGGCGATGCGATTGACAGCGTAGAATGAAGG
DNA 2: CCTTCATTCTACGCTGTCAATCGCATCGCCATGTTATCAACTCGAATGCCCTCGTTCCGC
B2: NRC3_wobSeed144_DR5_T19G_o1 (dsDNA)
DNA 1: GCTCGAGTAGGTTACCAAGGGGGCATTCAGCTTTCTGCGATTGACAGCGTAGAATGAAGG
DNA 2: CCTTCATTCTACGCTGTCAATCGCAGAAAGCTGAATGCCCCCTTGGTAACCTACTCGAGC
B3: NRC3_wobSeed90_DR3_A28C_o1 (dsDNA)
DNA 1: GCCATACAGGGTCAGCTAGGCCAGAGTCGGGACGGCGCGATTGACAGCGTAGAATGAAGG
DNA 2: CCTTCATTCTACGCTGTCAATCGCGCCGTCCCGACTCTGGCCTAGCTGACCCTGTATGGC
B4: NRC3_wobSeed58_DR2_C13G_o1 (dsDNA)
DNA 1: GCATCGAAAGGTGGTGAGGTGAGTATACAGAAAGGCGCGATTGACAGCGTAGAATGAAGG
DNA 2: CCTTCATTCTACGCTGTCAATCGCGCCTTTCTGTATACTCACCTCACCACCTTTCGATGC
B5: NRC3_wobSeed142_DR5_A5G_o1 (dsDNA)
DNA 1: GCATGCCAAGGTGATCGTGAGGTCGTTGATACTAACGCGATTGACAGCGTAGAATGAAGG
DNA 2: CCTTCATTCTACGCTGTCAATCGCGTTAGTATCAACGACCTCACGATCACCTTGGCATGC
B6: NRC3_wobSeed142_DR5_G21T_o1 (dsDNA)
DNA 1: B5 DNA 1 with G5A, G21T
DNA 2: B5 DNA 2 with C40A, C56T
B7: NRC3_wobSeed5_DR0_C24G_o1 (dsDNA)
DNA 1: GCCCTTACGGGTCAAGGTTATAGGACGGGTGGTACGGCGATTGACAGCGTAGAATGAAGG
DNA 2: CCTTCATTCTACGCTGTCAATCGCCGTACCACCCGTCCTATAACCTTGACCCGTAAGGGC
B8: NRC3_wobSeed5_DR0_T6A_o1 (dsDNA)
DNA 1: B7 DNA 1 with T6A, G24C
DNA 2: B7 DNA 2 with C37G, A55T
B9: NRC3_wobSeed98_DR4_T12C_o1 (dsDNA)
DNA 1: GCACTAGTTGGCCAGCTGAGGTCACACACAATTCGGGCGATTGACAGCGTAGAATGAAGG
DNA 2: CCTTCATTCTACGCTGTCAATCGCCCGAATTGTGTGTGACCTCAGCTGGCCAACTAGTGC
B10: NRC3_wobSeed98_DR4_G20T_o1 (dsDNA)
DNA 1: B9 DNA 1 with C12T, G20T
DNA 2: B9 DNA 2 with C41A, G49A
B11: NRC3_wobSeed6_DR0_T22A_o1 (dsDNA)
DNA 1: GCCCTAGCAGGCCAGGGTCACACAAGCATTTCGCTTGCGATTGACAGCGTAGAATGAAGG
DNA 2: CCTTCATTCTACGCTGTCAATCGCAAGCGAAATGCTTGTGTGACCCTGGCCTGCTAGGGC
B12: NRC3_wobSeed99_DR4_T5C_o1 (dsDNA)
DNA 1: GCTCCCGGAGGACACGAAAGGTCAGAGCTCGACATCGCGATTGACAGCGTAGAATGAAGG
DNA 2: CCTTCATTCTACGCTGTCAATCGCGATGTCGAGCTCTGACCTTTCGTGTCCTCCGGGAGC
B13: NRC3_wobSeed81_DR3_C22G_o1 (dsDNA)
DNA 1: GCATCTCTAGGTAACCAAGTTGAGTGAATGCCGAACGCGATTGACAGCGTAGAATGAAGG
DNA 2: CCTTCATTCTACGCTGTCAATCGCGTTCGGCATTCACTCAACTTGGTTACCTAGAGATGC
B14: NRC3_wobSeed81_DR3_C22A_o1 (dsDNA)
DNA 1: B13 DNA 1 with G22A
DNA 2: B13 DNA 2 with C39T
B15: NRC3_wobSeed125_DR5_G21T_o1 (dsDNA)
DNA 1: GCCCTTACGGGTCACTGACATGTTATAGCATTTGGAGCGATTGACAGCGTAGAATGAAGG
DNA 2: CCTTCATTCTACGCTGTCAATCGCTCCAAATGCTATAACATGTCAGTGACCCGTAAGGGC
B16: NRC3_wobSeed125_DR5_T6C_o1 (dsDNA)
DNA 1: B15 DNA 1 with T6C, T21G
DNA 2: B15 DNA 2 with A40C, A55G
B17: NRC3_wobSeed125_DR5_G10C_o1 (dsDNA)
DNA 1: B15 DNA 1 with G10C, T21G
DNA 2: B15 DNA 2 with A40C, C51G
B18: NRC3_wobSeed110_DR4_C7A_o1 (dsDNA)
DNA 1: GCTCTGATAGGTCAACGATGGTCAGCTAATCTGCTAGCGATTGACAGCGTAGAATGAAGG
DNA 2: CCTTCATTCTACGCTGTCAATCGCTAGCAGATTAGCTGACCATCGTTGACCTATCAGAGC
B19: NRC3_wobSeed4_DR0_T22C_o1 (dsDNA)
DNA 1: GCCCTACTGGGCCAAGGTCATCGATCAGTCAAAGCAGCGATTGACAGCGTAGAATGAAGG
DNA 2: CCTTCATTCTACGCTGTCAATCGCTGCTTTGACTGATCGATGACCTTGGCCCAGTAGGGC
B20: NRC3_wobSeed130_DR5_G14T_o1 (dsDNA)
DNA 1: GCCTCGAAAGGTCTTGCTCAGGTGAGTATACCAAACGCGATTGACAGCGTAGAATGAAGG
DNA 2: CCTTCATTCTACGCTGTCAATCGCGTTTGGTATACTCACCTGAGCAAGACCTTTCGAGGC
B21: NRC3_wobSeed61_DR2_G10T_o1 (dsDNA)
DNA 1: GCCGTCCAATGTCAGCAGGTCAGTGAAAGCGACGTGGCGATTGACAGCGTAGAATGAAGG
DNA 2: CCTTCATTCTACGCTGTCAATCGCCACGTCGCTTTCACTGACCTGCTGACATTGGACGGC
B22: NRC3_wobSeed88_DR3_T25A_o1 (dsDNA)
DNA 1: GCTAGCCTAGGTCATGCGGGCCAGAATAGTGTCGGCGCGATTGACAGCGTAGAATGAAGG
DNA 2: CCTTCATTCTACGCTGTCAATCGCGCCGACACTATTCTGGCCCGCATGACCTAGGCTAGC
B23: NRC3_wobSeed88_DR3_A28G_o1 (dsDNA)
DNA 1: B22 DNA 1 with A25T, A28G
DNA 2: B22 DNA 2 with T33C, T36A
B24: NRC3_wobSeed114_DR4_G10T_o1 (dsDNA)
DNA 1: GCAATACAGTGTCATCGTAGGCCAGAGTACGCACAGGCGATTGACAGCGTAGAATGAAGG
DNA 2: CCTTCATTCTACGCTGTCAATCGCCTGTGCGTACTCTGGCCTACGATGACACTGTATTGC
B25: NRC3_wobSeed114_DR4_G11A_o1 (dsDNA)
DNA 1: B24 DNA 1 with T10G, G11A
DNA 2: B24 DNA 2 with C50T, A51C
B26: NRC3_wobSeed137_DR5_A14T_o1 (dsDNA)
DNA 1: GCATATGTAGGTTTCATCCGGGTCATTCAGGCTATGGCGATTGACAGCGTAGAATGAAGG
DNA 2: CCTTCATTCTACGCTGTCAATCGCCATAGCCTGAATGACCCGGATGAAACCTACATATGC
B27: NRC3_wobSeed17_DR0_T18C_o1 (dsDNA)
DNA 1: GCATATGTAGGTTAGGGCCATTCAGAAAGTAGGGAAGCGATTGACAGCGTAGAATGAAGG
DNA 2: CCTTCATTCTACGCTGTCAATCGCTTCCCTACTTTCTGAATGGCCCTAACCTACATATGC
B28: NRC3_wobSeed17_DR0_T18A_o1 (dsDNA)
DNA 1: B27 DNA 1 with C18A
DNA 2: B27 DNA 2 with G43T
B29: NRC3_wobSeed100_DR4_A14C_o1 (dsDNA)
DNA 1: GCCCTACTGGGCCCCGAAAGGTCATTGATTCAGTGAGCGATTGACAGCGTAGAATGAAGG
DNA 2: CCTTCATTCTACGCTGTCAATCGCTCACTGAATCAATGACCTTTCGGGGCCCAGTAGGGC
B30: NRC3_wobSeed69_DR2_C6G_o1 (dsDNA)
DNA 1: GCAGTGAAAGTTCACTAGGTAACGTAAGATTCAGCTGCGATTGACAGCGTAGAATGAAGG
DNA 2: CCTTCATTCTACGCTGTCAATCGCAGCTGAATCTTACGTTACCTAGTGAACTTTCACTGC
B31: NRC3_wobSeed74_DR3_G17T_o1 (dsDNA)
DNA 1: GCTCTAGTTGGTCACGTAGGTCACACACGACGGGTAGCGATTGACAGCGTAGAATGAAGG
DNA 2: CCTTCATTCTACGCTGTCAATCGCTACCCGTCGTGTGTGACCTACGTGACCAACTAGAGC
B32: NRC3_wobSeed74_DR3_G20C_o1 (dsDNA)
DNA 1: B31 DNA 1 with T17G, G20C
DNA 2: B31 DNA 2 with C41G, A44C
B33: NRC3_wobSeed46_DR1_A15T_o1 (dsDNA)
DNA 1: GCTTACCAAGGTGATAGGTCGTTGATGCACGCCTTGGCGATTGACAGCGTAGAATGAAGG
DNA 2: CCTTCATTCTACGCTGTCAATCGCCAAGGCGTGCATCAACGACCTATCACCTTGGTAAGC

Molecular target: VDR:RXRa (Homo sapiens, UniProt P11473;P19793 full;full)
Test: no ligand; PBM; 270 nM : 90 nM RXRa; PBS pH 7.4, 2% milk, 0.02% Triton X-100, 1 mM DTT, BSA, 0.4 mg/ml salmon testes DNA
Settings: tags: His kept;His cleaved; copies: 1;1; label: surface-attached array probe
Method in brief: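 For binding z-scores, the reference was random background probes on custom Agilent 4×180K protein-binding microarrays. These arrays were incubated 1 h with ligand-free nuclear receptor dimers in PBS pH 7.4, 2% milk, 0.02% Triton X-100, 1 mM DTT, 0.2 mg/mL BSA and 0.4 mg/ml salmon testes DNA. Fluorescence was scanned after antibody detection of each partner (one per run) and regression-normalized.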

VDR:RXRa, sequence (P11473 whole entry, chain 1 of 2): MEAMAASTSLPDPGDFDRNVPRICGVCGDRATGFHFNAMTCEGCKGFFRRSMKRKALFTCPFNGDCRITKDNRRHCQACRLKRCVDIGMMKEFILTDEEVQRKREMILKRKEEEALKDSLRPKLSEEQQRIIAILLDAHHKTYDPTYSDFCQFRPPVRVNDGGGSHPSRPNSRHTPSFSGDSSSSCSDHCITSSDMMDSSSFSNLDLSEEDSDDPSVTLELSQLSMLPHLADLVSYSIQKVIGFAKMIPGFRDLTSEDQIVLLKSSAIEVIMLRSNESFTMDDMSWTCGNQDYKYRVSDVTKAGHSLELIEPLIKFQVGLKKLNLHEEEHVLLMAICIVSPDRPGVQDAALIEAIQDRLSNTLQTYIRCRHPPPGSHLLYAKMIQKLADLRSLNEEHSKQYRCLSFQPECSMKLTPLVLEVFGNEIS
VDR:RXRa, sequence (P19793 whole entry, chain 2 of 2): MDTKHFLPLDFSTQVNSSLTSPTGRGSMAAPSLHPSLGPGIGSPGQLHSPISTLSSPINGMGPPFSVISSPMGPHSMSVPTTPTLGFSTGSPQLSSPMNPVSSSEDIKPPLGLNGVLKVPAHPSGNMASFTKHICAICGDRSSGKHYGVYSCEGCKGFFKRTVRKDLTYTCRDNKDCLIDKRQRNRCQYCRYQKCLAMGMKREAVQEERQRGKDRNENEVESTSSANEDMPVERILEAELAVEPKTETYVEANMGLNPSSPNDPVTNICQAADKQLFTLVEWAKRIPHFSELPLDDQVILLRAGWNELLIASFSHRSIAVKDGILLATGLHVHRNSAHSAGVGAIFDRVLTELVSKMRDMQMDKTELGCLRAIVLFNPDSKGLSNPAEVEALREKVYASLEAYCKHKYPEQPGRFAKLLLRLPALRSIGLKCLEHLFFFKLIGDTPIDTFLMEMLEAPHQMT

Binder	binding signal
B1	3.42 PBM z-score against 500 random probes
B2	3.47 PBM z-score against 500 random probes
B3	3.58 PBM z-score against 500 random probes
B4	0.28 PBM z-score against 500 random probes
B5	3.08 PBM z-score against 500 random probes
B6	0.3 PBM z-score against 500 random probes
B7	3.5 PBM z-score against 500 random probes
B8	3.06 PBM z-score against 500 random probes
B9	3.6 PBM z-score against 500 random probes
B10	0.23 PBM z-score against 500 random probes
B11	3.03 PBM z-score against 500 random probes
B12	3.26 PBM z-score against 500 random probes
B13	0.49 PBM z-score against 500 random probes
B14	0.37 PBM z-score against 500 random probes
B15	3.4 PBM z-score against 500 random probes
B16	3.38 PBM z-score against 500 random probes
B17	0.17 PBM z-score against 500 random probes

Binder	binding signal
B18	3.1 PBM z-score against 500 random probes
B19	3.17 PBM z-score against 500 random probes
B20	0.2 PBM z-score against 500 random probes
B21	0.44 PBM z-score against 500 random probes
B22	3.12 PBM z-score against 500 random probes
B23	3 PBM z-score against 500 random probes
B24	0.5 PBM z-score against 500 random probes
B25	0.25 PBM z-score against 500 random probes
B26	3.52 PBM z-score against 500 random probes
B27	0.42 PBM z-score against 500 random probes
B28	0.41 PBM z-score against 500 random probes
B29	3.44 PBM z-score against 500 random probes
B30	3.33 PBM z-score against 500 random probes
B31	3.15 PBM z-score against 500 random probes
B32	0.37 PBM z-score against 500 random probes
B33	0.48 PBM z-score against 500 random probes
